Data on six molecules can be found in patent US20250042956A1.

Assay [1] has as its target T1, AT3G49850.1 TRB3 (Arabidopsis thaliana) (UniProt Q9M2X3).
T1 sequence: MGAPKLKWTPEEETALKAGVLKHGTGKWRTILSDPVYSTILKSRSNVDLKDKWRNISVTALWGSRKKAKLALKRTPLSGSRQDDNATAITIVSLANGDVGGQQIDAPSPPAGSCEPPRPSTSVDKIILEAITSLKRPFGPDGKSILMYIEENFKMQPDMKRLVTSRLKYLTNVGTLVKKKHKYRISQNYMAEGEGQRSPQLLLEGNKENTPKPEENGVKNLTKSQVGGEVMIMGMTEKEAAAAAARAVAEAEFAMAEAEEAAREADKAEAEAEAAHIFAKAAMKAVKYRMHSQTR
Put plainly: IP-MS rep 2.

Assay [2] concerns the target T1, AT3G49850.1 TRB3 (Arabidopsis thaliana). Put plainly: IP-MS rep 1.
Assay [3] has the same target. Put plainly: X-link IP-MS.
The target of assay [4] is AT4G20400.1 JMJ14 (Arabidopsis thaliana), Q8GUI6. Put plainly: IP-MS rep 2. To be noted: remark: other sources report otherwise.
Assay [5] concerns the target T2, AT5G17690.1 LHP1 (Arabidopsis thaliana), Q946J8.
T2 chain: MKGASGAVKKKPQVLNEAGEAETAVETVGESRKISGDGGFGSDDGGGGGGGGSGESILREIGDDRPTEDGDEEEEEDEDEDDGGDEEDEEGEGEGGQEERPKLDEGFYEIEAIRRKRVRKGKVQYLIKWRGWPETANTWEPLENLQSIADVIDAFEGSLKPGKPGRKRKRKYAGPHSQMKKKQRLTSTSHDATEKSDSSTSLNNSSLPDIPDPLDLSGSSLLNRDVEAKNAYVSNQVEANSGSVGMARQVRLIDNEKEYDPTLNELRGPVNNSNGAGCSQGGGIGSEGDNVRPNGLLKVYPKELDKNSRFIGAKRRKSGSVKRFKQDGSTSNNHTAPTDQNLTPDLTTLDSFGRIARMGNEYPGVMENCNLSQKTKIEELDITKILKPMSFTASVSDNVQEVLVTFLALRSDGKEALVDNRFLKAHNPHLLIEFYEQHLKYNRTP
Put plainly: IP-MS rep 2. To be noted: remark: other sources report otherwise.

Assay [6] addresses AT4G20400.1 JMJ14 (Arabidopsis thaliana), Q8GUI6. Put plainly: X-link IP-MS. Particulars: remark: other sources report otherwise.
Assay [7] deals with T2, AT5G17690.1 LHP1 (Arabidopsis …). The experiment in a line: X-link IP-MS. To be noted: remark: other sources report otherwise.
Assay [8] addresses AT4G20400.1 JMJ14 (Arabidopsis thaliana), Q8GUI6. The experiment in a line: IP-MS rep 1. To be noted: remark: other sources report otherwise.
In assay [9] the target is T2, AT5G17690.1 LHP1 (Arabidopsis …). The experiment in a line: IP-MS rep 1. Particulars: remark: other sources report otherwise.
The target of assay [10] is T3, AT4G02020.1 SWN (Arabidopsis thaliana) (UniProt Q9ZSM8).
T3 sequence (looked up): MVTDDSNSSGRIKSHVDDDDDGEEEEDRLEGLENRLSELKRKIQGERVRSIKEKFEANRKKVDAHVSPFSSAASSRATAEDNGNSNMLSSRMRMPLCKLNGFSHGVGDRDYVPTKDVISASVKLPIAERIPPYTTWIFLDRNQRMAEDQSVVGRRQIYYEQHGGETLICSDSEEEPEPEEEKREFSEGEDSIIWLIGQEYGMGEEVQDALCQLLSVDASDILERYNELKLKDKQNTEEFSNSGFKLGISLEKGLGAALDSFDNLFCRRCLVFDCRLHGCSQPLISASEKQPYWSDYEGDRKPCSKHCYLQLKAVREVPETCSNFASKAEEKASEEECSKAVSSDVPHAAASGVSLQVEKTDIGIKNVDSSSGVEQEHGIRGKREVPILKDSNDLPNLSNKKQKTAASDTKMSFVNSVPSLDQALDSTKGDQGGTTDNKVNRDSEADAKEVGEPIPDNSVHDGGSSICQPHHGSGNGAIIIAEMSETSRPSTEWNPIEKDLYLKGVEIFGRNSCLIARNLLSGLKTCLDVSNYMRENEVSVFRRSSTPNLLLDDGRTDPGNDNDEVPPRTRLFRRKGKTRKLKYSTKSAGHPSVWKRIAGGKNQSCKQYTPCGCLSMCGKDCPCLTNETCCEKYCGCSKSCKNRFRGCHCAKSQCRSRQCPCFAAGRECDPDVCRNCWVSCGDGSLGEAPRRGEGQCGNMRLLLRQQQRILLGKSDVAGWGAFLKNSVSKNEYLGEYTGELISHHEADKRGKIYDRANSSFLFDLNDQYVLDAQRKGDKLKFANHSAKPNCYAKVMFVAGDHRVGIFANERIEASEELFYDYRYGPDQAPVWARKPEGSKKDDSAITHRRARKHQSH
The experiment in a line: IP-MS rep 2.

Assay [11] concerns the target T3, AT4G02020.1 SWN (Arabidopsis thaliana). Put plainly: IP-MS rep 1.
For assay [12] the target is unchanged. The experiment in a line: X-link IP-MS.
For assay [13], the target named is T4, AT5G17690.1 LHP1 (Arabidopsis thaliana) (UniProt Q946J8).
T4 sequence: T2 chain
Put plainly: IP-MS rep 2.

Assay [14] addresses T4, AT5G17690.1 LHP1 (Arabidopsis thaliana). The experiment in a line: IP-MS rep 1.
Assay [15] has as its target T5, AT5G67580.1 TRB2 (Arabidopsis thaliana) (UniProt Q9FJW5).
T5 sequence: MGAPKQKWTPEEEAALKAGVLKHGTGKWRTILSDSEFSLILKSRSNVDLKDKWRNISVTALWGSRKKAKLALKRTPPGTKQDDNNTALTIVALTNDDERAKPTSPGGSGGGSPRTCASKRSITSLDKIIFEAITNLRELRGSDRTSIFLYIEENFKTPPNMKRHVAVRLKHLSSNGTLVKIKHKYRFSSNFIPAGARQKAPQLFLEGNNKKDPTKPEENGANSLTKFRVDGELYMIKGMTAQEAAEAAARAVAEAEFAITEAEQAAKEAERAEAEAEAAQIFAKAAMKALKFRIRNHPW
The experiment in a line: IP-MS rep 2.

Assay [16] addresses T5, AT5G67580.1 TRB2 (Arabidopsis thaliana). Put plainly: IP-MS rep 1.
Assay [17] has the same target. Put plainly: X-link IP-MS.

Sequence of AT4G20400.1 JMJ14 (Arabidopsis thaliana), Q8GUI6 (Q8GUI6 whole entry): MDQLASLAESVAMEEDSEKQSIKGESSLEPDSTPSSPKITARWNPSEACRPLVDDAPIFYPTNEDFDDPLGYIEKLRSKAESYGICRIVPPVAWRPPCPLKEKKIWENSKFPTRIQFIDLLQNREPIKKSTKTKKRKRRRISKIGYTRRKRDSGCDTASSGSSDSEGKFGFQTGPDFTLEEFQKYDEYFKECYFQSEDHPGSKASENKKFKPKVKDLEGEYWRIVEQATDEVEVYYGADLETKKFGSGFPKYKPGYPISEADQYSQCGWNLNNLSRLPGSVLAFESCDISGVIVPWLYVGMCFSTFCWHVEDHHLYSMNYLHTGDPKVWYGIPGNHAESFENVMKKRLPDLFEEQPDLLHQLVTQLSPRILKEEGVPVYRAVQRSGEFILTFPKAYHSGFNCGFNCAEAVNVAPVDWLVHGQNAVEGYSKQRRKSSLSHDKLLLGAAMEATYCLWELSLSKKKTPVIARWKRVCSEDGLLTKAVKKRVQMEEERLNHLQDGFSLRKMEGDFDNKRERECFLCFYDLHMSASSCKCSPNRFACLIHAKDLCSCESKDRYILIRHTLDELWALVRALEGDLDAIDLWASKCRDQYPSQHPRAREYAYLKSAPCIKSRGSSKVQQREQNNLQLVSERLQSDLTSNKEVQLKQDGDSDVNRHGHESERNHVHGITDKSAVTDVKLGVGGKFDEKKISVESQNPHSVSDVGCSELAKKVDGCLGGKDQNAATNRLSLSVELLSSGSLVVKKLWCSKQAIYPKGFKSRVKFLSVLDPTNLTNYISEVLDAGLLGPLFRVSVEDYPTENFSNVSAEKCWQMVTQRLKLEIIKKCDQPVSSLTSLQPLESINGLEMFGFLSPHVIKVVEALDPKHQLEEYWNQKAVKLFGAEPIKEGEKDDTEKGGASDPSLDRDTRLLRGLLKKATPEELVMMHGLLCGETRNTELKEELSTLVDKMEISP

B1: FLAG-TRB2 (protein, not shown: small tags and cut ends)
chain: T5 sequence
Take B1: the IP-MS count in assay [1] is 0; in assay [2] it was 0; in assay [3] it was 4.

B2: FLAG-TRB1, Q8VWK4 1-300 (protein, not shown: small tags and cut ends)
chain: MGAPKQKWTQEEESALKSGVIKHGPGKWRTILKDPEFSGVLYLRSNVDLKDKWRNMSVMANGWGSREKSRLAVKRTFSLPKQEENSLALTNSLQSDEENVDATSGLQVSSNPPPRRPNVRLDSLIMEAIATLKEPGGCNKTTIGAYIEDQYHAPPDFKRLLSTKLKYLTSCGKLVKVKRKYRIPNSTPLSSHRRKGLGVFGGKQRTSSLPSPKTDIDEVNFQTRSQIDTEIARMKSMNVHEAAAVAAQAVAEAEAAMAEAEEAAKEAEAAEAEAEAAQAFAEEASKTLKGRNICKMMIRA
Take B2: the IP-MS count in assay [4] was determined as 35; in assay [5], 1; in assay [6], 77; in [7], 0; in assay [8] it was 34; in assay [9], 0.

B3: FLAG-TRB1 (protein, not shown: small tags and cut ends)
chain: B2 chain
For B3, the IP-MS count turned out to be 0 in [10], 1 in assay [11] and 2 in assay [12].

B4: TRBIP2 (bait of the TRBIP2 IP-MS) (protein, not shown: small tags and cut ends)
chain: MATNACLESDSLLPPRKRLLAGFKNQNSRISNESPSPPFASSSSSTTTSNGSSASAVVHTHHLDHLLNDQTRSPEELAQASKATAALAVKVAKAARATANEKAIIASKAVAAAKNALELFASFPAAETVSCKEPRLIRAINNSPRVLTDCSGHRNKKQKTLTSTMNDGNDVAGVVDSDDGTRVNGKLLLCDNTLKEKTEEESSSLGKRRGRVKLPLSMCAYKDQENGITLEENNLSVSKSEGYNGGVAQVIERPSWKCQDLKSPECVKQNKVVRS
As to B4, the IP-MS count in assay [13] was 1; in assay [14], 2.

B5: FLAG-TRB3 (protein, not shown: small tags and cut ends)
chain: T1 sequence
For the molecule B5, the IP-MS count is 11 in [15], 12 in assay [16] and 11 in [17].

B6: FLAG-TRB3, Q9M2X3 1-295 (protein, not shown: small tags and cut ends)
chain: T1 sequence
For the molecule B6, the IP-MS count in assay [4] came out at 12; in [6], 72; in assay [8], 13.
